According to patent publication US8338155B2, “Modified mevalonate kinase with reduced feedback inhibition” (DSM IP Assets B.V., priority 2004, dated 2012):

Tests used:
[1] = test system: Saccharomyces cerevisiae mevalonate kinase; assay: Mevalonate kinase activity assay (NADH consumption, photometric at 340 nm): specific activity; assay type: biochemical; conditions: purified His6-tagged enzyme; WT = non-mutated His6-tagged mevalonate kinase
Source text: Methods for measuring specific activity are known to the person skilled in the art. The specific activity may for instance be determined via measuring the consumption of NADH. Suitable conditions for such measurement may be those as e.g. outlined in Example 1 except that, typically, saturating substrate concentrations are used or, in the case of enzyme inhibition at high substrate concentrations, at substrate concentrations that provide maximal activity under the particular experimental conditions.
(§1) For preparing mevalonate as substrate, 130 mg of DL-mevalonate lactone (FLUKA Chemie AG, Buchs, Switzerland) were dissolved in 5.5 ml of 0.2 M KOH and incubated for 15 min at 50° C. The solution was then adjusted to pH 7.0 by addition of 0.1 M HCl at room temperature (RT). Except if stated otherwise, the assay mixture consisted of 100 mM K2BPO/KH2PO4 (pH 7.0), 1 mM ATP, 2 mM MgCl2, 1 mM mevalonate, 0.5 mM phosphoenolpyruvate (PEP), 0.32 mM NADH, 20 U/ml pyruvate kinase and 27 U/ml lactate dehydrogenase (Sigma-Aldrich, St. Louis, Mo., USA). Inhibition was tested by adding 1 μM FPP.
(§2) Purification of His6-tagged mevalonate kinase and of His6-tagged mevalonate kinase mutant enzymes was done with Ni-NTA chromatography using the QIAexpress system/reagents of Qiagen. Upon addition of purified (His6-tagged) mevalonate kinase, enzymatic reaction reflected by consumption of NADH was followed by photometric measurement at 340 nm. One unit (1 U) of mevalonate kinase activity catalyzes the phosphorylation of 1 μmol of mevalonate per min.
(§3) Preparation of Mevalonate and Activity Measurement was Exactly Performed as Described in Example 1. 1 μM FPP was used for inhibition assays performed with the Saccharomyces cerevisiae mevalonate kinase wild-type enzyme and its mutants.

[2] = test system: Saccharomyces cerevisiae mevalonate kinase; assay: Inhibition of mevalonate kinase activity by the feedback inhibitor FPP: feedback resistance; assay type: biochemical; conditions: 1 μM FPP; % resistance=100·((d/c)−(b/a))/(1−(b/a)) relative to wild-type
Experimental: “Feedback resistance” as used herein may be any increase in resistance to “feedback inhibition” (as defined above). Feedback resistance can be analyzed in different ways known to those skilled in the art. An appropriate example of such an analysis is shortly described herein: mevalonate kinase activity is measured in an activity assay at non-saturating concentrations of for instance ATP (or of another phosphate donor) and mevalonate (or mevalonate analogue), i.e., at for instance ATP (or phosphate donor) and mevalonate (or mevalonate analogue) concentrations around which the reaction rate is sensitive to changes of these substrate concentrations, e.g., at concentrations around the respective Km values of the enzyme under investigation for these substrates. The activities of both wild-type mevalonate kinase and of a variant/mutant of this enzyme are measured under otherwise identical conditions both in the absence and presence of a relevant concentration of a feedback inhibitor, i.e., at a concentration of feedback inhibitor affording significant inhibition of the wild-type mevalonate kinase. If the extent of inhibition (e.g., % inhibition) by the feedback inhibitor is lower for the mutant than for the wild-type enzyme, then the mutant is feedback resistant in the context of the present patent application. Once a feedback resistant variant/mutant has been identified, the same procedure as described above may be applied to identify further improved mutants, i.e., mutants that are even more feedback resistant. Feedback resistance (%) is calculated as follows: if (a) and (b) are the measured mevalonate kinase activities of the wild-type enzyme in the absence and presence, respectively, of the feedback inhibitor (e.g., FPP), and if (c) and (d) are the measured mevalonate kinase activities of the mutant enzyme in the absence and presence, respectively, of the same feedback inhibitor, then % feedback resistance is: % resistance=100·((d/c)−(b/a))/(1−(b/a))
as §1, §2, §3
Feedback resistance (%) was calculated according to the following formula: % resistance=100·((d/c)−(b/a))/(1−(b/a)) wherein (a) and (b) refer to the measured mevalonate kinase activities of the wild-type enzyme in the absence and presence, respectively, and (c) and (d) refer to the measured mevalonate kinase activities of the mutant enzyme in the absence and presence, respectively, of FPP. The results are shown in Tab. 1, wherein WT represents the non-mutated mevalonate kinase containing a His6-tag (SEQ ID NO:3).

[3] = test system: Paracoccus zeaxanthinifaciens strain R114; assay: Coenzyme Q10 production in fed-batch cultivation of recombinant strains; assay type: cell-based; conditions: 70 h, strain R114 with plasmid pBBR-K-mev-op-(S. cerevisiae mvk-N66K/I152M)-PcrtE-ddsAwt vs pBBR-K-mev-op-(S. cerevisiae mvk)-PcrtE-ddsAwt
Source text: To test the in vivo effect of mutation N66K/I152M on the production of coenzyme Q10, the DNA encoding S. cerevisiae mevalonate kinase mutant N66K/1152M (SEQ ID NO:5) is introduced into Paracoccus zeaxanthinifaciens and compared to the CoQ10 production in P. zeaxanthinifaciens carrying the DNA encoding the wild-type S. cerevisiae mevalonate kinase (SEQ ID NO:2).
Plasmids according to pBBR-K-mev-op-R114-PcrtE-ddsAwt, are constructed wherein the mevalonate operon, including its promoter region, from P. zeaxanthinifaciens R114 (see above) is replaced by either the DNA encoding the wild-type S. cerevisiae mevalonate kinase (SEQ ID NO:2) resulting in pBBR-K-mev-op-(S. cerevisiae mvk)-PcrtE-ddsAwt or the DNA encoding S. cerevisiae mevalonate kinase mutant N66K/1152M (SEQ ID NO:5) resulting in pBBR-K-mev-op-(S. cerevisiae mvk-N66K/I152M)-PcrtE-ddsAwt. […]
Coenzyme Q10 production is tested in fed-batch cultivations of P. zeaxanthinifaciens strains R114/pBBR-K-mev-opR114-PcrtE-ddsAwt, R114/pBBR-K-mev-op-(S. cerevisiae mvk)-PcrtE-ddsAwt and R114/pBBR-K-mev-op-(S. cerevisiae mvk-N66K/1152M)-PcrtE-ddsAwt. […] The precultures are incubated at 28° C. with shaking at 250 rpm for 28 h, after which time the optical density at 660 nm (OD660) is between 14 and 22 absorbance units, depending on the strain used. […]

B1: N66K, I152M: Saccharomyces cerevisiae mevalonate kinase mutant with substitutions N66K and I152M (encoding DNA SEQ ID NO:5) (protein, listed as Saccharomyces cerevisiae)
chain: MSLPFLTSAPGKVIIFGEHSAVYNKPAVAASVSALRTYLLISESSAPDTIELDFPDISFNHKWSIKDFNAITEDQVNSQKLAKAQQATDGLSQELVSLLDPLLAQLSESFHYHAAFCFLYMFVCLCPHAKNIKFSLKSTLPIGAGLGSSASMSVSLALAMAYLGGLIGSNDLEKLSENDKHIVNQWAFIGEKCIHGTPSGIDNAVATYGNALLFEKDSHNGTINTNNFKFLDDFPAIPMILTYTRIPRSTKDLVARVRVLVTEKFPEVMKPILDAMGECALQGLEIMTKLSKCKGTDDEAVETNNELYEQLLELIRINHGLLVSIGVSHPGLELIKNLSDDLRIGSTKLTGAGGGGCSLTLLRRDITQEQIDSFKKKLQDDFSYETFETDLGGTGCCLLSAKNLNKDLKIKSLVFQLFENKTTTKQQIDDLLLPGNTNLPWTS
Specific activity (% of wild-type) [1]: 148 % of wild-type
Feedback resistance (%) [2]: 67%
final concentration of coenzyme Q10 produced, higher than strain carrying wild-type S. cerevisiae mvk [3]: at least 5%
